The results in this text go back to US20170224799A1 (UNIVERSITY OF CONNECTICUT, published 2017).

One experiment addresses H-2 K^d (mouse, UniProt P01902 22-305). The experiment is described as follows: competition with radiolabeled standard peptide, purified H-2 K^d.
A further experiment has as its target T1, H-2 D^d (mouse, UniProt P01900 25-311, limits assumed).
T1 construct: construct not described
T1 sequence (MHC heavy, looked up): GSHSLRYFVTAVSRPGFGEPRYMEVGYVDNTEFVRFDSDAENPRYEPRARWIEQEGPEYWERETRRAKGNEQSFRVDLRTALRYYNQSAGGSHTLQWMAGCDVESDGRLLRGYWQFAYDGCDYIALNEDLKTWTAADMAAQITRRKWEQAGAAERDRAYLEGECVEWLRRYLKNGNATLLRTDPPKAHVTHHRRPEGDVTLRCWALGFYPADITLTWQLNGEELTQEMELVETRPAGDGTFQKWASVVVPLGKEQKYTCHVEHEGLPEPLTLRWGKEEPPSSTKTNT
The experiment in a line: direct peptide-binding studies.

The next experiment addresses T2, H-2 L^d (mouse, UniProt P01897 25-309, limits assumed).
T2 construct: construct not described
T2 sequence (MHC heavy, looked up): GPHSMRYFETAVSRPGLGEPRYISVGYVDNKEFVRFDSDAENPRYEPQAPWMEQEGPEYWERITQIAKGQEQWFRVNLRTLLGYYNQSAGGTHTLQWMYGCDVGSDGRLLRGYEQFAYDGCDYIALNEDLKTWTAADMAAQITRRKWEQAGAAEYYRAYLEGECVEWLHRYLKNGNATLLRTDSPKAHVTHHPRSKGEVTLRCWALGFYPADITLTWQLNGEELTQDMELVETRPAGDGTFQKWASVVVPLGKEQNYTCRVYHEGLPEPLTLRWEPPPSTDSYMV
The experiment is described as follows: direct peptide-binding studies.

H-2 K^d, sequence (P01902 22-305): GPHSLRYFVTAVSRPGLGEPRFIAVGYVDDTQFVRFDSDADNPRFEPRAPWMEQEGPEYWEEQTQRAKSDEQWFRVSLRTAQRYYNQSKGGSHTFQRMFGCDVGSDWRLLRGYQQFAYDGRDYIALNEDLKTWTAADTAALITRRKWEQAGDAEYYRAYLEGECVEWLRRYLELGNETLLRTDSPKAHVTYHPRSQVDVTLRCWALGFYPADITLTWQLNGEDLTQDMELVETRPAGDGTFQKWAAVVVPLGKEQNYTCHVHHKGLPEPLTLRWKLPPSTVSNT

B1: Tnpo3.3 WT peptide LDMLQALCIP (peptide)
peptide: LDMLQALCIP
As usually defined, the IC50 is the midpoint of a concentration-inhibition curve. As for B1, in the experiment with H-2 K^d, the IC50 was 111 nM.

B2: Ccdc136 Mut peptide ELQGLLEDEL (peptide)
peptide: ELQGLLEDEL
Turning to B2, the binding result with H-2 D^d and with H-2 L^d was “no binding” in each case.

B3: Tnpo3.4 Mut peptide SYMLQALC (peptide)
peptide: SYMLQALC
As for B3, the IC50 with H-2 K^d was found to be 14900 nM.

B4: Alkbh6.2 Mut peptide DYVPMEQPR (peptide)
peptide: DYVPMEQPR
As to B4, the binding result with H-2 D^d and in the experiment with H-2 L^d was “no binding” each time.

B5: Tnpo3.3 Mut peptide SYMLQALCIP (peptide)
peptide: SYMLQALCIP
B5 had an IC50 with H-2 K^d of 67 nM.

B6: Slit3 Mut peptide GFHGCIHEVL (peptide)
peptide: GFHGCIHEVL
Turning to B6, the binding result in the experiment with H-2 D^d and with H-2 L^d was “no binding” each time.

B7: Atxn10.2 Mut peptide VFPGLMEL (peptide)
peptide: VFPGLMEL
With B7, the binding result with H-2 D^d and in the experiment with H-2 L^d was “no binding” each time.

B8: Atxn10.1 Mut peptide QVFPGLMEL (peptide)
peptide: QVFPGLMEL
Consider B8, for which the binding result with H-2 D^d and with H-2 L^d was “no binding” throughout.

B9: Tnpo3.4 WT peptide LDMLQALC (peptide)
peptide: LDMLQALC
Molecule B9 had an IC50 in the experiment with H-2 K^d of 89 nM.

B10: Stau1.4 Mut peptide ALKSEEKTL (peptide)
peptide: ALKSEEKTL
As to B10, the binding result with H-2 D^d and with H-2 L^d was “no binding” in each case.

B11: Zfp236.2 Mut peptide EYLDLQTQG (peptide)
peptide: EYLDLQTQG
Turning to B11, in the experiment with H-2 K^d, the IC50 came out at 10000 nM.
